Reference: PMC4235346

Assays:
Test in all cases: fluorescence anisotropy
Conditions in all cases: 10 nM labelled DNA, 10 mM HEPES pH 7.0, 60 mM NaCl, 240 mM KCl, 25 C, anaerobic, 5 mM EDTA for apo or 1.2x (InrS) / 2.2x (ZiaR) metal …
[1] = tested on: InrS E95A (Synechocystis PCC 6803)
[2] = tested on: InrS (Synechocystis PCC 6803)
[3] = tested on: InrS E98A (Synechocystis PCC 6803)
[4] = tested on: ZiaR (Synechocystis PCC 6803)

Substance “TCATCAATATCCCCCCTGGGGGCATAGAATAGA (double strand) [nrsDProFA (nrsD operator-promoter)]” has a Kd ([1]; Ni(II), 1.2 molar excess) of 1400 nM, a Kd ([1]; apo, 5 mM EDTA) of 22 nM and a Kd ([2]; Cu(I), 1.2 molar excess) of 3100 nM. For the same substance, the Kd ([2]; Cu(II), 1.2 molar excess) was 3600 nM, the Kd ([2]; Ni(II), 1.2 molar excess) was 2300 nM and the Kd ([2]; Zn(II), 1.2 molar excess) was 980 nM. It also gave a Kd ([2]; apo, 5 mM EDTA) of 9.4 nM, a Kd ([3]; Ni(II), 1.2 molar excess) of 1300 nM and a Kd ([3]; apo, 5 mM EDTA) of 21 nM.
Work on zia operator-promoter (zia o/p) yielded a Kd ([4]; Zn(II), 2.2 molar excess, K1 (printed as >>)) of over 10000 nM, a Kd ([4]; Zn(II), 2.2 molar excess, K2 (printed as >>)) of over 10000 nM and a Kd ([4]; apo, 5 mM EDTA, K1 (first dimer)) of 22 nM. For the same substance, the Kd ([4]; apo, 5 mM EDTA, K2 (second dimer)) was 530 nM.
